Assay results reported in patent US6545137.

Target: low-density lipoprotein (LDL), 125I-labelled
Experiment: cell-based or functional assay

Row | LDL uptake (40 ug/ml 125I-LDL, 4 h, 37 C, FH fibroblasts infected with LDL-receptor adenovirus) | LDL uptake (40 ug/ml 125I-LDL, 4 h, 37 C, FH fibroblasts infected with LRP5 adenovirus) | Substance
1 | 20 fold | – | human LDL-receptor (from UniProt P01130 22-860)
2 | – | 60 % increase | human LRP5 (LDL-receptor related protein-5), isoform 1 (from UniProt O75197 32-1615)
